For the series, the target named is T1, His-MBP-SPO11;TOP6BL-Flag (Mus musculus;Mus musculus, UniProt Q9WTK8;J3QMY9 1-396;1-579, |).
T1 sequence 1: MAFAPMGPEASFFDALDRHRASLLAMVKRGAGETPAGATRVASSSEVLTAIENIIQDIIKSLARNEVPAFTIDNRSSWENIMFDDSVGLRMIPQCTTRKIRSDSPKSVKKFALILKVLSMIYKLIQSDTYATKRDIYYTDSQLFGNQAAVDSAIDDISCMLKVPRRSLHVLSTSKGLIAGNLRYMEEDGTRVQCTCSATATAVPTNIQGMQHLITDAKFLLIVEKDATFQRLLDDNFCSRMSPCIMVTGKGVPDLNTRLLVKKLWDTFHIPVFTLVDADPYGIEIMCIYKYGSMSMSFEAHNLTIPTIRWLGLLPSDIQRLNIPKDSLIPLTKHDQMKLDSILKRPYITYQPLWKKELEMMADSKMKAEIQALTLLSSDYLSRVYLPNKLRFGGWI
T1 sequence 2: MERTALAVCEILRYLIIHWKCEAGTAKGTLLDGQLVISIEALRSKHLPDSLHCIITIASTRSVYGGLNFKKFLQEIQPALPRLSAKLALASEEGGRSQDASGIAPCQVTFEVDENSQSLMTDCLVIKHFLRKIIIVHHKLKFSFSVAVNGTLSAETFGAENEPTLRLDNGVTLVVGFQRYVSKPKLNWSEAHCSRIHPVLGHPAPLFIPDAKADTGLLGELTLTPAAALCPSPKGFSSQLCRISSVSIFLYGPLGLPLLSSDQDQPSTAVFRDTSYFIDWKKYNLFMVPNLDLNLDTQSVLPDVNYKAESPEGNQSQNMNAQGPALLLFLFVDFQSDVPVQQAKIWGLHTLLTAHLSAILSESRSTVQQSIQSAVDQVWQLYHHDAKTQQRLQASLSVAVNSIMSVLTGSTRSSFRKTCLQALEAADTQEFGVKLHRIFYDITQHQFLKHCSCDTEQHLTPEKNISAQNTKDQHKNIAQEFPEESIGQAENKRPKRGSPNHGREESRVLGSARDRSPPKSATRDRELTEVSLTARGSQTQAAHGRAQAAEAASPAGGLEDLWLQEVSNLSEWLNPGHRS
Put plainly: EMSA. For orientation: Mobility shift assays separate free from complexed probe on a gel.

B1: 46bp dsDNA, double 5' overhang (dsDNA)
DNA 1: TAGACGTCCTCGCATCAAGATGCTGCTGCCATCTTATATTTTCTATAC
DNA 2: TAGTATAGAAAATATAAGATGGCAGCAGCATCTTGATGCGAGGACGTC
One may read the Kd as the equilibrium constant for the complex coming apart. Read a low Kd as tighter binding. Molecule B1 displayed an equilibrium dissociation constant (Kd) of 20.8 ± 0.39 nM.

The values are drawn from PMC11922769.
